Measurements from paper PMC9067469.

Legend:
Test in all cases: SPR
[1] = molecular target: V3-pI(A)-N434A (human IgG1 Fc variant G236N/H268D/Q311R/A330K/D413K/N434A of the pH-dependent anti-l (human))
[2] = molecular target: V3-N434A (human IgG1 Fc variant G236N/H268D/A330K/N434A of the pH-dependent anti-latent myostatin antibody) (human)
[3] = molecular target: IgG1 (pH-dependent anti-latent myostatin antibody with wild-type human IgG1 constant region) (human)
[4] = molecular target: V3 (human IgG1 Fc variant G236N/H268D/A330K of the pH-dependent anti-latent myostatin antibody) (human)
[5] = molecular target: V2 (human IgG1 Fc variant G236N/H268D of an anti-latent myostatin antibody) (human)
[6] = molecular target: V1 (human IgG1 Fc variant G236N of an anti-latent myostatin antibody) (human)

relative binding per units (IgG1 = 1) (relative to IgG1) [3]	relative binding per units (IgG1 = 1) (relative to IgG1) [1]	Substance	other results
–	–	cynomolgus FcRn (from UniProt Q8SPV9 24-365) (receptor)	Kd [1]: 355 nM; Kd [2]: 526 nM; Kd [3]: 1520 nM
1	–	cynomolgus FcγRIIIa(R), extracellular region (from UniProt Q8SPW2 17-208) (receptor)	–
1	–	cynomolgus FcγRIIIa(S), extracellular region (from UniProt Q8SPW2 17-208) (receptor)	–
1	1.97	cynomolgus FcγRIIa1, extracellular region (receptor)	relative binding per units (IgG1 = 1) (relative to IgG1) [4]: 2; relative binding per units (IgG1 = 1) (relative to IgG1) [5]: 1.45
1	2.52	cynomolgus FcγRIIa2, extracellular region (receptor)	relative binding per units (IgG1 = 1) (relative to IgG1) [4]: 2.56; relative binding per units (IgG1 = 1) (relative to IgG1) [5]: 1.89
1	2.76	cynomolgus FcγRIIa3, extracellular region (receptor)	relative binding per units (IgG1 = 1) (relative to IgG1) [4]: 2.77; relative binding per units (IgG1 = 1) (relative to IgG1) [5]: 2.36
1	2.83	cynomolgus FcγRIIb, extracellular region (receptor)	–
1	0.71	cynomolgus FcγRIa, extracellular region (receptor)	–
1	–	human FcγRIIIa(F), extracellular region (from UniProt P08637 17-208) (receptor)	–
1	–	human FcγRIIIa(V), extracellular region (from UniProt P08637 17-208) (receptor)	–
–	–	human FcγRIa, extracellular region (from UniProt P12314 16-292) (receptor)	relative binding per units (IgG1 = 1) (relative to IgG1) [6]: 0.16
